Reference: article PMC9275567

Assays:
[1] = biological target: FUsed in Sarcoma (FUS) in HeLa-Kyoto cells (human (endogenous in HeLa-Kyoto)) (UniProt P35637); experiment: cross-linking + co-IP
[2] = biological target: RNA polymerase II (RNA Pol II) (human (endogenous in HeLa-Kyoto)) (UniProt P24928); experiment: cross-linking + co-IP

| Substance | percent of RNA Pol II cross-linked to FUS (large particles, >70 nm) [1] [%] | percent of RNA Pol II cross-linked to FUS (whole cell lysate) [1] [%] | percent of cellular FUS cross-linked to RNA Pol II [2] [%] |
| --- | --- | --- | --- |
| RNA polymerase II (RNA Pol II) (from UniProt P24928 1-1970) (complex) | 69 | 87 | – |
| FUsed in Sarcoma (FUS) in HeLa-Kyoto cells (from UniProt P35637 1-526) (natural protein) | – | – | 21 |
